Assay: soluble on expression in E. coli; label from the status in PepcDB or PDB records

Row | Sequence | soluble on expression in E. coli
1 | MGSDKIHHHHHHMMQTDQRILLVGTPSERLSRLCCIFEFLGEQIDIITIEKLSTCLQETRFRALVISIDNMSADALKLVASQYPWQPILLFGHVGELQVSNVLGHIEEPLNYPQLTELLHFCQVYGQVKRPQVPTSANQTKLFRSLVGRSDGIANVRHLISQVATSDATVLVLGQSGTGKEVVARNIHYLSERRDGPFIPVNCGAIPPELLESELFGHEKGSFTGAISSRKGRFELAEGGTLFLDEIGDMPLQMQVKLLRVLQERVFERVGGTKTINADVRVVAATHRDLETMISSNEFREDLYYRLNVFPIEMPALSERKDDVPLLLQELVSRVYNEGRGKVRFTQRAIESLKEHAWSGNVRELSNLVERLTILYPGGLVDVNDLPIKYRHIDVPEYSVELSEEQQERDALASIFTSEEPVEIPETRFPSELPPEGVNLKDLLAELEIDMIRQALEQQDNVVARAAEMLGIRRTTLVEKMRKYGMTKE | not soluble
2 | MGSDKIHHHHHHMMTTVKDSTPAARELYLDLLVRILLNTIYQDPAINPGVRPMVVEPFNPKTRAIGKDWPTQAHTMVGQARLENLRQLSQQVLDDGIVGDFIETGVWRGGCCILMRGVLAANQIHDRKVYVADSFAGLPAPNVELYPRDTGWDLHEFKELAVSLQTVKDNFSRYGLLDEQVVFVEGMFSDTLPSLSAGPFALLRLDGDLYESTIVALNSLYPKLSRGGVVIIDDRALDPCRRAVIDFRDKHGITAPMQEVDWTGSWWRKE | not soluble
3 | MGSDKIHHHHHHMNADEFVEAFNNAKDLTELELLAELGKSISDDLEGHEKGKVLGTLGNIYYALHRLKEAEEAYLEALNVYLKLSEEDEGFLPYVVGCLYNLGNLYQVSRKFAEAEKAYTDALKVLGDVRNDQRLAILTALGTMYAKLDMKEHAERCLVEAFEMAKVKGDARLLGTLLNNLAVVYQRGGRKREAAMLLKMALDALERVGEDLGIAAVLQNLLPYLDEDELRRVMERLESFGELPIDLKAKIAYFKARRAEEKGEDSAKHYMEAACLGFMAYRNFGFQSINFMHCLDKVIESDSELREDAVVLKKVILKYYYGSQKVEIDFDSRVGRMIKAVLEGDDIYEDGILEDTVRLIAEDLLKAGTKV | not soluble
4 | MGSDKIHHHHHHMNALPKLNQLRNLRAIIQHGNISAAAQMLHQTQSTLTRSIQELEKTLGVTLLDRGMNSTVLTKAGMMFEPRMNLILNELERAVDELRQIEKLSDGKIAFGCSHFPATSIVPDVIKKFQERHNSTRITIIEGQLSELLSSLRMGKLDFFIGVVSSDLMLNEFVEERLTSCSFSVVARKGHPLANSTSLAELQAAKWYIPAASHGYYSDLETVIFPNGVKSCGSVIFGDSSAIARKLVLNEDYLFVGPRPMFLAPHHKDLISIIPIKDKLPEGHYSLISPRNKKLTPAALNLVNEIRFAYFDFIKSHS | not soluble
5 | MGSDKIHHHHHHMNDLNVLVLEDEPFQRLVAVTALKKVVPGSILEAADGKEAVAILESCGHVDIAICDLQMSGMDGLAFLRHASLSGKVHSVILSSEVDPILRQATISMIECLGLNFLGDLGKPFSLERITALLTRYNARRQDLPRQIEVAELPSVADVVRGLDNGEFEAYYQPKVALDGGGLIGAEVLARWNHPHLGVLPPSHFLYVMETYNLVDKLFWQLFSQGLATRRKLAQLGQPINLAFNVHPSQLGSRALAENISALLTEFHLPPSSVMFEITETGLISAPASSLENLVRLRIMGCGLAMDDFGAGYSSLDRLCEFPFSQIKLDRTFVQKMKTQPRSCAVISSVVALAQALGISLVVEGVESDEQRVRLIELGCSIAQGYLFARPMPEQHFLDYCSGS | not soluble
6 | MGSDKIHHHHHHMNDLPLADLDAFATIARLRNFRAAGKLRGVSASSLSEAMRRLEARVGVRLLNRTTRSVTLTDAGARLLERLSPTLADIELALDDINQFRERPFGRLRLNVPGIVARCVLPPVVTGFLAAYPDILLEVTVNDALIDVLAEGCDAGIRYEEALHQDMIAVPIGPRRQRYVCVAAPSYLEQYGRPEHPRDLIHHRSILHRFNSGRVNEWHFEREGEAINVSPPPRLIAETVDLELAAVRAGLGMMGTFEDFVIEDLNAGRLERVLTDWEDEFSGPFLYYHSRRHMPVPLRVFVDYIRQHGDPG | not soluble
7 | MGSDKIHHHHHHMNDTPPPPSCARCSAVWQKSGTTNCWSNPDNRPGRPADCPSSAHGDIVASSFDEYRGESDDARLARVAARVEGLCYRKMTGSDAVVARWTRVEDTIALAKLMGWSKVGIATCIGLLDETRQLATILEAQGLEPVSVCCKAGSIDKLELGLDESDKVRPGTFEPACNPVAQAEVLNRCGTHMNIIVGLCVGHDMLFTKHSAAPVTTLVCKDRVTGHNPVAVLYGQNFYFKRLQKMPIDIPEGEE | not soluble
8 | MGSDKIHHHHHHMNEAQQLQQMQPLLYKQLQKSFEHGRLAHAYLFEGDTGTGKQEFGLWMAKHVFCTNLVNQQPCNECHNCVRINENEHPDVLRIAPDGQTIKVNQIRELKAEFSKSGVETAKKVFLIQEADKMSTGAANSLLKFLEEPEGQILAILETTSLSRILPTIQSRCQTLHFQPLVKKTLIDRLIKQGIGEKTATLLAELTNSFEKAVEISQDEWFNEAREIILQWFNYLKSNDLQAFIYVQKKMVKVFKEKEQQALSFDLLMVYYRQLLEESVATQQAKKVTEEQAERLALILKARQKWTANVSWQNVCEQLVIQMIHPKS | not soluble
9 | MGSDKIHHHHHHMNEIKRIDTVQQYNDYFGMETLHPLVTVIDAREANPVHFCPKLYNLYAILMKDPDCGTLKYGRSIYDYQQGTMLFLAPGQVMGSDDDGQLHQPGGWLLAFHPELVRNTPLAQFIKNYSFFSYSANEALHLSEQERRTIIDCMCKIREELLHPIDKHTKSLITDNIKLLLDYCERFYDRQFETRENVNLDILARFEQTLDDYLASNLPISKGTPTVQYCADKLCLSANYLSDLLKKETGVSALKHIQQKMLDIAKERVFDVTKSISEISYELGFPYPQHFSRWFKKMVGVTPNEYRQNRNN | not soluble
10 | MGSDKIHHHHHHMNELTKQLQEIMVPKAALIAYEYQEGHYASGSHYLELRPINKKGRMEAGIPVTYEFMDSLVESYSDGNRRIPHGWLPPNMLWCDTRRGHESYVWYNPPGKRRMFFKNDLNIGDGMFHVPGVIYIIKNERMDIFAYKGKKPDGRTPLYLAPFFNVTGGNVCLGNSTLEKPESLDFHTLLEYWEKRFWLSEFSHLGGGKNPTRNNLVLVTERMREQPFDNDELQPINKRLKDILP | not soluble
11 | MGSDKIHHHHHHMNETSSYTIEEVAGLLKVSKLTVYDLIKKGVLPAYRVGRQMRVDEEDLKQYKTNMRMSQPIAAKEAPKQVQEAEPDGRPNVMISGQDISMDILSKHLENAIQETPLRKYKGSLNSLIDMYQGKCDIVSLHLYDAETGQYNAPYVKRILTGEPFCLINVVLRKAGLYVQKGNPKNIQGWKDLKRADIRIINREKGSGARVLLDEQLGLLGVNPADVVGYGDIVTDHYAAASQVSSGQADAGIGAQHAAHMGSVDFIPLIDEQYDIVVLKKNEQLLKAVKEILNSEDYKANLSHLNGYETKLTGKVILET | not soluble
12 | MGSDKIHHHHHHMNFQIVINNIQHIGYAELDVDLNASGIICIVGKNGVGKTTLIKAILNLKSADTFSRTASPGIFKANSSMRCTYGENSYEFSFDSDINDLNSRSPIPEELKSVIDVELPMPFGQRFNNYQNIMSADMDIRTALILGEYEVPVELISFLSDIYKTNKFNGLVEVSAKGGSYYCIPLDDDRYVREDHLSSGEFFLISLYRKIKGRSKFIVIDEIDISLDAAAQAHLIGWLRRFCTTEQVKVVFTTHSLALMRTLKDGELFYMEESEGKVSVIPSSYNYIKSVLFGFKGWDRYILTEDAMLKSLLEYVLANYCSGLFFSYQIIHVGGGSNVVDLMRQNSTEGFFSTPENVISVLDGDQAEYRYARRPNVYCIPFLSVEKAIFAEYKAGRFLPELAPDPRFDTPKNFCSAIGRDRHATEADIIKYLCDSYPTEVRRFAQTLSDFLS | not soluble
13 | MGSDKIHHHHHHMNGSATRTVAGVSVPDTTIVARTLDYARLEYEPYLFNHVVRSWLFAVRIAQLRNIDHDAEVVAVGTLLHDVTLNERFDGPRRFEVEGADLARVFAREGGVDERRAQLIWDSVALNSTPSIGLYKEAEVALCTAGIGLDVIGFQYERIPSEEIARIVQEYPRLNMKRRMTKCFCHIAEKRPETTYDNFVRDFGERHILGYRAPSSVDLVANAPFDE | not soluble
